Results reported in patent US20240254238A1 (OXFORD BIOTHERAPEUTICS, published 2024).

Biological target: human CD205 (human, UniProt O60449 28-1722)
Experiment: cell-based or functional assay

Chain of human CD205 (O60449 28-1722 limits assumed): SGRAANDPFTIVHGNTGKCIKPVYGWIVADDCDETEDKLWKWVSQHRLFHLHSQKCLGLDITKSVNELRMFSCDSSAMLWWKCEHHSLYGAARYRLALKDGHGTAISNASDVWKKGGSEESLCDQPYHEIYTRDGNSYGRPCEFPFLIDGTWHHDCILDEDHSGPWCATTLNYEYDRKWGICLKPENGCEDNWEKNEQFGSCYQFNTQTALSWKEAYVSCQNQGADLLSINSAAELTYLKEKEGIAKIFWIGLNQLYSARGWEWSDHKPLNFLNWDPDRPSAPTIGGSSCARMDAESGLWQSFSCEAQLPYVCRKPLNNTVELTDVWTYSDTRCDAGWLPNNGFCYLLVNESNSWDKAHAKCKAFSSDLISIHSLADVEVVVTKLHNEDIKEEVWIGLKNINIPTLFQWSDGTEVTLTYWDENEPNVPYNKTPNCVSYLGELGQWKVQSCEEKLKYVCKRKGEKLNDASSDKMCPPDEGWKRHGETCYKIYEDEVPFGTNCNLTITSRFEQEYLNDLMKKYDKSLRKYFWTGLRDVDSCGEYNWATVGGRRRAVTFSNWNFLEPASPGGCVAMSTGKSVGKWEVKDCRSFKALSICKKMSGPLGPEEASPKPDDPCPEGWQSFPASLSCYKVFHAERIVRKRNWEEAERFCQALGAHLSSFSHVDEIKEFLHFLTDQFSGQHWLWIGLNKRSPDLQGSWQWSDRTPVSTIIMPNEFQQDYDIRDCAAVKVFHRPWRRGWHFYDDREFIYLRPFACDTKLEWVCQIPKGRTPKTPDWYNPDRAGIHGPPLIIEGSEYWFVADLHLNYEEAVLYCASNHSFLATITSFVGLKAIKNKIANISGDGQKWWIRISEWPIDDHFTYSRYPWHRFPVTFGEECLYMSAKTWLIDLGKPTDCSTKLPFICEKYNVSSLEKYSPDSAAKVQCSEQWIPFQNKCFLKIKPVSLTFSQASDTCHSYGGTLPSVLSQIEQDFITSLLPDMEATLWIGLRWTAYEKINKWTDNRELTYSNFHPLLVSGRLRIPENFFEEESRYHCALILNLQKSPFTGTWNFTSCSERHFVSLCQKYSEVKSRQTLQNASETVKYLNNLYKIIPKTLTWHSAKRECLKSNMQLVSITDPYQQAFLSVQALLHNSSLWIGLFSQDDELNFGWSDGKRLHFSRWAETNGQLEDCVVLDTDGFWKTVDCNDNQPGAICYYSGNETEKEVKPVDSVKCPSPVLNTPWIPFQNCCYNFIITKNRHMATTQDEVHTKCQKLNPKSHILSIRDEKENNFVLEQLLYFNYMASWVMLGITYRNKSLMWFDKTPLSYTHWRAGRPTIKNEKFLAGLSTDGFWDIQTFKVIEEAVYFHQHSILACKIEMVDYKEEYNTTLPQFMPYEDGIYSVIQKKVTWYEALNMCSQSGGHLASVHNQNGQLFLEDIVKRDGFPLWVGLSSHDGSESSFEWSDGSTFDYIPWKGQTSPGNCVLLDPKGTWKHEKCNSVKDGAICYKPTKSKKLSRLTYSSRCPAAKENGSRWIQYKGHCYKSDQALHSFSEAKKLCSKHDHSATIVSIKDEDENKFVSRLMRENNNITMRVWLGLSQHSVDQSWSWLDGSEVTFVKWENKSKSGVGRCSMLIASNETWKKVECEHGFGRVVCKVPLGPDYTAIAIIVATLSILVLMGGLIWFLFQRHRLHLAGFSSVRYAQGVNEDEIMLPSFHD

B1: DM4-conjugated anti-LY75 monoclonal antibody 16A5 (CD205_A1) (antibody, V domains shown)
VH: EVQLVESGGGLVKPGGSLRLSCAASGFTYSNAWMSWVRQAPGKGLEWVGRIKSKTDGGTTDYAAPVQGRFTISRDDSKNTLYLQMNSLKTEDTAVYYCTIFGVVSFDYWGQGTLVTVSS
VL: DVQMTQSPSSLSASVGDRVTITCRASQSISDYLSWYQQRPGKAPNLLIYAASNLKTGVPSRFSGSGSGTDFTLTISTLQPEDFATYYCQQSYRSPWTFGQGTKVEIKR
modifications: antibody conjugated to the maytansinoid DM4; attachment residues not stated
- EC50 (pM) of % Specific Death, Cell-Titer Glo, Raji cells, 96 hours: 728 pM
- EC50 (pM) of % Specific Death, Cell-Titer Glo, THP1 cells, 96 hours: 37.5 pM

B2: DM4-conjugated anti-LY75 monoclonal antibody 8A3 (antibody, V domains shown)
VH: EVQLVESGGGLIQPGGSLRLSCAASGFTVSSNYMSWVRQAPGKGLEWVSVIYSGGSTYYTDSVKGRFTISRDNSKNTLYLQMNSLRAEDTAVYYCARDKSGWNGFDYWGQGTLVTVSS
VL: DVQMTQSPSSLSASVGDRVTITCRASQSVSTYLHWYQQKPGKAPKLLIYAASSLQGGLPSRFSGSGSGTDFTLTISSLQPEDFATYYCQQSSSTPLTFGGGTKVEITR
modifications: antibody conjugated to the maytansinoid DM4; attachment residues not stated
- EC50 (pM) of % Specific Death, Cell-Titer Glo, Raji cells, 96 hours: 1010 pM
- EC50 (pM) of % Specific Death, Cell-Titer Glo, THP1 cells, 96 hours: 98.8 pM
